Test results reported in US7193044.

Legend:
[1] = tested on: GST-BAD S112A/S136A/S155A
[2] = tested on: T1, GST-BAD (GST-tagged shorter murine BAD)
T1 sequence: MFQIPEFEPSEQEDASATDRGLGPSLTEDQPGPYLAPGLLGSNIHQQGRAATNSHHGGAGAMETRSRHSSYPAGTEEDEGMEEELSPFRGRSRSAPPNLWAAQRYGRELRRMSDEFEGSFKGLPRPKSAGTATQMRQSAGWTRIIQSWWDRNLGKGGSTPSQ

[3] = tested on: T2, Full-length BAD (wildtype), in vitro translated, 35S-methionine labelled, buffer control
T2 sequence: T1 sequence

[4] = tested on: GST-BAD S112A [GST: P08515]

In the case of “PKA (cAMP-dependent protein kinase), catalytic subunit from bovine heart”, the “in vitro phosphorylation (32P incorporation, autoradiography)” value (shortened to “in vitro phosphorylation”) (GST-BAD S112A/S136A) is reported as “the shorter murine BAD, and BAD mutants containing mutations at the serine at a position corresponding to Ser112 and/or Ser136, were good in vitro substrates for PKA”, the “in vitro phosphorylation” value [1] is reported as “abolished phosphorylation of the triple mutant GST-BAD S112A/S135A/S155A” and the “in vitro phosphorylation” value (GST-BAD S155A) is reported as “dramatically reduced the phosphorylation of the single mutant GST-BAD S155A”. For the same substance, the “in vitro phosphorylation” value (GST-BAD S136A) was “the shorter murine BAD, and BAD mutants containing mutations at the serine at a position corresponding to Ser112 and/or Ser136, were good in vitro substrates for PKA”, the “in vitro phosphorylation” value [2] was “the shorter murine BAD, and BAD mutants containing mutations at the serine at a position corresponding to Ser112 and/or Ser136, were good in vitro substrates for PKA” and the “gel-mobility shift after incubation with PKA and ATP” value [3] was “phosphorylation by PKA induced a gel-mobility shift of wild-type BAD”. The “in vitro phosphorylation” value [4] was “the shorter murine BAD, and BAD mutants containing mutations at the serine at a position corresponding to Ser112 and/or Ser136, were good in vitro substrates for PKA”.
